Data: the RNAGym collection of RNA variant scans (doi:10.7554/elife.90254)

B1: LINE1-mini (parent)
chain: GGCAGAGCUCAACACAGCGUGGCAAAGUGGCUGUGGCUAGACUGCC

Variants of: B1
Test: self-cleavage, relative activity (ratio to wild type); higher = more cleavage; in vitro, sequencing; the parent is a self-cleaving ribozyme

Question: With GGCAUAGCUCAACACAGCGUGGCAAAGUGGCGGUGGCUAGACUGCC [G5U U32G] as the variant, how does the self-cleavage read?
Answer: 0.09

Question: With GGCAUAGCUCAACACAGCGUGGCAAAGUGGCCGUGGCUAGACUGCC [G5U U32C] as the variant, how does the self-cleavage read?
Answer: 0.07

Question: For GGCAUAGCUCAACACAGCGUGGCAAAGUGGCAGUGGCUAGACUGCC [G5U U32A], which self-cleavage is on record?
Answer: 0.07

Question: For GGCAUAGCUCAACACAGCGUGGCAAAGUGGCUGUGGCUAGACAGCC [G5U U43A], which self-cleavage is on record?
Answer: 0.08

Question: Which self-cleavage does the source give for GGCAUAGCUCAACACAGCGUGGCAAAGUGGCUGUGGCUAGACGGCC [G5U U43G] here?
Answer: 0.1

Question: For GGCAUAGCUCAACACAGCGUGGCAAAGUGGCUGUGGCUAGACCGCC [G5U U43C], which self-cleavage is on record?
Answer: 0.06

Question: With GGCAGCGCUCCACACAGCGUGGCAAAGUGGCUGUGGCUAGACUGCC [A6C A11C] as the variant, how does the self-cleavage read?
Answer: 0.05

Question: With GGCAGCGCUCUACACAGCGUGGCAAAGUGGCUGUGGCUAGACUGCC [A6C A11U] as the variant, how does the self-cleavage read?
Answer: 0.1

Question: With GGCAGCGCUCGACACAGCGUGGCAAAGUGGCUGUGGCUAGACUGCC [A6C A11G] as the variant, how does the self-cleavage read?
Answer: 0.02

Question: For GGCAUAGCUCAACACAGCGUGGCAAAGUGGCUGUGGCUAUACUGCC [G5U G40U], which self-cleavage is on record?
Answer: 0.09

Question: With GGCAUAGCUCAACACAGCGUGGCAAAGUGGCUGUGGCUAAACUGCC [G5U G40A] as the variant, how does the self-cleavage read?
Answer: 0.06

Question: For GGCAUAGCUCAACACAGCGUGGCAAAGUGGCUGUGGCUACACUGCC [G5U G40C], which self-cleavage is on record?
Answer: 0.05

Question: Which self-cleavage does the source give for GGCAGCGCUCAACACAGCGUGGCAAAGUGGCUGUGGCUAGACUGCC [A6C] here?
Answer: 0.71

Question: For GGCAUAGCUCAACACAGCGUAGCAAAGUGGCUGUGGCUAGACUGCC [G5U G21A], which self-cleavage is on record?
Answer: 0.28

Question: With GGCAUAGCUCAACACAGCGUUGCAAAGUGGCUGUGGCUAGACUGCC [G5U G21U] as the variant, how does the self-cleavage read?
Answer: 0.1

Question: For GGCAUAGCUCAACACAGCGUCGCAAAGUGGCUGUGGCUAGACUGCC [G5U G21C], which self-cleavage is on record?
Answer: 0.09

Question: With GGCAUAGCUCAACACAGCGCGGCAAAGUGGCUGUGGCUAGACUGCC [G5U U20C] as the variant, how does the self-cleavage read?
Answer: 0.05

Question: With GGCAUAGCUCAACACAGCGAGGCAAAGUGGCUGUGGCUAGACUGCC [G5U U20A] as the variant, how does the self-cleavage read?
Answer: 0.06

Question: For GGCAUAGCUCAACACAGCGGGGCAAAGUGGCUGUGGCUAGACUGCC [G5U U20G], which self-cleavage is on record?
Answer: 0.06

Question: For GGCAUAGCUCAACACAGCUUGGCAAAGUGGCUGUGGCUAGACUGCC [G5U G19U], which self-cleavage is on record?
Answer: 0.1

Question: For GGCAUAGCUCAACACAGCGUGGCAAAGUGUCUGUGGCUAGACUGCC [G5U G30U], which self-cleavage is on record?
Answer: 0.26

Question: For GGCAUAGCUCAACACAGCGUGGCAAAGUGCCUGUGGCUAGACUGCC [G5U G30C], which self-cleavage is on record?
Answer: 0.05

Question: Which self-cleavage does the source give for GGCAUAGCUCAACACAGCGUGGCAAAGUGACUGUGGCUAGACUGCC [G5U G30A] here?
Answer: 0.18

Question: For GGCAUAGCUCAACACAGCGUGUCAAAGUGGCUGUGGCUAGACUGCC [G5U G22U], which self-cleavage is on record?
Answer: 0.18

Question: With GGCAUAGCUCAACACAGCGUGACAAAGUGGCUGUGGCUAGACUGCC [G5U G22A] as the variant, how does the self-cleavage read?
Answer: 0.16

Question: With GGCAUAGCUCAACACAGCGUGCCAAAGUGGCUGUGGCUAGACUGCC [G5U G22C] as the variant, how does the self-cleavage read?
Answer: 0.06

Question: Which self-cleavage does the source give for GGCAUAGCUCAACACAGCGUGGCAAAGAGGCUGUGGCUAGACUGCC [G5U U28A] here?
Answer: 0.06

Question: With GGCAUAGCUCAACACAGCGUGGCAAAGGGGCUGUGGCUAGACUGCC [G5U U28G] as the variant, how does the self-cleavage read?
Answer: 0.09

Question: With GGCAUAGCUCAACACAGCGUGGCAAAGCGGCUGUGGCUAGACUGCC [G5U U28C] as the variant, how does the self-cleavage read?
Answer: 0.09

Question: For GGCAUAGCACAACACAGCGUGGCAAAGUGGCUGUGGCUAGACUGCC [G5U U9A], which self-cleavage is on record?
Answer: 0.36

Question: Which self-cleavage does the source give for GGCAUAGCGCAACACAGCGUGGCAAAGUGGCUGUGGCUAGACUGCC [G5U U9G] here?
Answer: 0.11

Question: For GGCAUAGCCCAACACAGCGUGGCAAAGUGGCUGUGGCUAGACUGCC [G5U U9C], which self-cleavage is on record?
Answer: 0.05

Question: Which self-cleavage does the source give for GGCAUAGCUCAACACAGCGUGGCAAAGUGGCUUUGGCUAGACUGCC [G5U G33U] here?
Answer: 0.05

Question: Which self-cleavage does the source give for GGCAUAGCUCAACACAGCGUGGCAAAGUGGCUCUGGCUAGACUGCC [G5U G33C] here?
Answer: 0.06

Question: For GGCAUAGCUCAACACAGCGUGGCAAAGUGGCUAUGGCUAGACUGCC [G5U G33A], which self-cleavage is on record?
Answer: 0.04

Question: For GGCAUAGCUCAACACAGCGUGGCAAAUUGGCUGUGGCUAGACUGCC [G5U G27U], which self-cleavage is on record?
Answer: 0.11

Question: Which self-cleavage does the source give for GGCAUAGCUCAACACAGCGUGGCAAAAUGGCUGUGGCUAGACUGCC [G5U G27A] here?
Answer: 0.06

Question: With GGCAUAGCUCAACACAGCGUGGCAAACUGGCUGUGGCUAGACUGCC [G5U G27C] as the variant, how does the self-cleavage read?
Answer: 0.05

Question: With GGCAUAGCUCAACACAGCGUGGCAAAGUGGCUGUGGCAAGACUGCC [G5U U38A] as the variant, how does the self-cleavage read?
Answer: 0.08

Question: With GGCAUAGCUCAACACAGCGUGGCAAAGUGGCUGUGGCGAGACUGCC [G5U U38G] as the variant, how does the self-cleavage read?
Answer: 0.03

Question: With GGCAUAGCUCAACACAGCGUGGCAAAGUGGCUGUGGCCAGACUGCC [G5U U38C] as the variant, how does the self-cleavage read?
Answer: 0.05

Question: Which self-cleavage does the source give for GGCAUAGCUCAACACAGCGUGGCAAAGUGGCUGUGGCUAGACUACC [G5U G44A] here?
Answer: 0.08

Question: With GGCAUAGCUCAACACAGCGUGGCAAAGUGGCUGUGGCUAGACUCCC [G5U G44C] as the variant, how does the self-cleavage read?
Answer: 0.06

Question: With GGCAUAGCUCAACACAGCGUGGCAAAGUGGCUGUGGCUAGACUUCC [G5U G44U] as the variant, how does the self-cleavage read?
Answer: 0.06

Question: For GGCAUAGCUCAACACAGCGUGGCAAAGUGGCUGUGACUAGACUGCC [G5U G36A], which self-cleavage is on record?
Answer: 0.33

Question: For GGCAUAGCUCAACACAGCGUGGCAAAGUGGCUGUGCCUAGACUGCC [G5U G36C], which self-cleavage is on record?
Answer: 0.04

Question: With GGCAUAGCUCAACACAGCGUGGCAAAGUGGCUGUGUCUAGACUGCC [G5U G36U] as the variant, how does the self-cleavage read?
Answer: 0.57

Question: Which self-cleavage does the source give for GGCAUAGCUCAACACAGCGUGGCAAAGUAGCUGUGGCUAGACUGCC [G5U G29A] here?
Answer: 0.15

Question: Which self-cleavage does the source give for GGCAUAGCUCAACACAGCGUGGCAAAGUCGCUGUGGCUAGACUGCC [G5U G29C] here?
Answer: 0.04

Question: For GGCAUAGCUCAACACAGCGUGGCAAAGUUGCUGUGGCUAGACUGCC [G5U G29U], which self-cleavage is on record?
Answer: 0.12

Question: Which self-cleavage does the source give for GGCAUAGCUCAACACAGCGUGGCAAAGUGGCUGGGGCUAGACUGCC [G5U U34G] here?
Answer: 0.04

Question: Which self-cleavage does the source give for GGCAUAGCUCAACACAGCGUGGCAAAGUGGCUGCGGCUAGACUGCC [G5U U34C] here?
Answer: 0.07

Question: Which self-cleavage does the source give for GGCAUAGCUCAACACAGCGUGGCAAAGUGGCUGAGGCUAGACUGCC [G5U U34A] here?
Answer: 0.04

Question: Which self-cleavage does the source give for GGCAUAGCUCAACACAGCGUGGCAAAGUGGCUGUUGCUAGACUGCC [G5U G35U] here?
Answer: 0.15

Question: For GGCAUAGCUCAACACAGCGUGGCAAAGUGGCUGUAGCUAGACUGCC [G5U G35A], which self-cleavage is on record?
Answer: 0.08

Question: With GGCAUAGCUCAACACAGCGUGGCAAAGUGGCUGUCGCUAGACUGCC [G5U G35C] as the variant, how does the self-cleavage read?
Answer: 0.06
